The values that follow come from patent publication US20240279358A1 (Alector, published 2024).

In assay [1] the target is T1, human MerTK on M2c-differentiated human macrophages (human, UniProt Q12866 21-999).
T1 sequence: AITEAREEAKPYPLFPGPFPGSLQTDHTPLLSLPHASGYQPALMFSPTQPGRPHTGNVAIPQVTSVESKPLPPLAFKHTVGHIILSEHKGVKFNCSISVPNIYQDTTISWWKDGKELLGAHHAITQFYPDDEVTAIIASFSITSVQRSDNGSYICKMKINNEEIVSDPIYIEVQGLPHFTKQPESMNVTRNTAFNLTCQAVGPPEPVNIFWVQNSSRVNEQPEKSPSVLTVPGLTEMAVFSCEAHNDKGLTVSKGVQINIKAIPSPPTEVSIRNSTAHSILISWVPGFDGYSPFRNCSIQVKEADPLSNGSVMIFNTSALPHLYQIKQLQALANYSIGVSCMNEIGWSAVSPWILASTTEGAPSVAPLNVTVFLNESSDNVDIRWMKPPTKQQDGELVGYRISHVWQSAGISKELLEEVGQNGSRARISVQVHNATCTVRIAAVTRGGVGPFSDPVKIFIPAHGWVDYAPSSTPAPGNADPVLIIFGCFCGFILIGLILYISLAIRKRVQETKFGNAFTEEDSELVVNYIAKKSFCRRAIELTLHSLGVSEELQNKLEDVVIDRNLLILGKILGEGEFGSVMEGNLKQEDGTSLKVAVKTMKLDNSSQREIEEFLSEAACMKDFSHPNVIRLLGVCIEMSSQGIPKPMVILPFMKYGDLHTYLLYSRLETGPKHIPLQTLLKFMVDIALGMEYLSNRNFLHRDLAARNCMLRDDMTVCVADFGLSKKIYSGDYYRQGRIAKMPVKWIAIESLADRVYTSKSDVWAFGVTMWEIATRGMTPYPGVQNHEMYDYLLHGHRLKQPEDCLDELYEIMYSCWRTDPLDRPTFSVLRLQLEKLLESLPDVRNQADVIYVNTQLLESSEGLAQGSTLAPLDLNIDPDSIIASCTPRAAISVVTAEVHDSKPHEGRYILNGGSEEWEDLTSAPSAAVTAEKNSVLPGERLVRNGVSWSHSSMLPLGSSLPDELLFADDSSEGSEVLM
The assay can be described thus: cell-based or functional assay.

The target of assay [2] is T1, human MerTK on M2c-differentiated human …. The assay can be described thus: cell-based or functional assay. The source holds these as a separate data set.
Assay [3] shares this target. The assay can be described thus: cell-based or functional assay. The source holds these as a separate data set.
Assay [4] deals with T2, human MerTK overexpressed on CHO cells (CHO-huMerTK OE) (human, UniProt Q12866 21-999).
T2 construct: also called human MerTK overexpressing CHO cells; not shown: mGFP tag of the lentiviral ORF clone
T2 sequence: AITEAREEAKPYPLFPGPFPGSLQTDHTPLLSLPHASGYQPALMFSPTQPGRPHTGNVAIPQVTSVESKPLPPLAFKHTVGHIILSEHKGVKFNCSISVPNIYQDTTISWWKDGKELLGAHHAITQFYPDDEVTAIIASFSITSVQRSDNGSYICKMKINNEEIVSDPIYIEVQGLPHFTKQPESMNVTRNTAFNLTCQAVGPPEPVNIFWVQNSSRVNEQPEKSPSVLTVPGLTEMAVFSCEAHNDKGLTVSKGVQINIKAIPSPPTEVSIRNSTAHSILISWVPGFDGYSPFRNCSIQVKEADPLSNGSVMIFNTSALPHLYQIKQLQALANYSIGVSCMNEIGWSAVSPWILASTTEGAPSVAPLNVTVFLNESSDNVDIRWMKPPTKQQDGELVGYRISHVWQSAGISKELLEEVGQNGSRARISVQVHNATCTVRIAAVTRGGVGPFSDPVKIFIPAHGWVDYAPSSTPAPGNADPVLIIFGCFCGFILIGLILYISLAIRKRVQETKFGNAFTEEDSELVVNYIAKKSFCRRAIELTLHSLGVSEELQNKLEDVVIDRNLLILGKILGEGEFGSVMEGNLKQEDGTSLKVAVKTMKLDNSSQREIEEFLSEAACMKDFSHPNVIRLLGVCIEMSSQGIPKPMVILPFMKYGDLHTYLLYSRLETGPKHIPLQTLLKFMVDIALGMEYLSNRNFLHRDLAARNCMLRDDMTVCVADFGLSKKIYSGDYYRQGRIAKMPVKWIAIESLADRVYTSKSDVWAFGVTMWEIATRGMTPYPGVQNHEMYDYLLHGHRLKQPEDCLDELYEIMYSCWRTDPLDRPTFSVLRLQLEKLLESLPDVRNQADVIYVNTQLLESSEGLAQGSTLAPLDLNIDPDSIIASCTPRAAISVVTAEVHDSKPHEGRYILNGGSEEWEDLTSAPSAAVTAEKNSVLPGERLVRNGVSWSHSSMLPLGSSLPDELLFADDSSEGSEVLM
The assay can be described thus: FACS on CHO-huMerTK OE cells; reference is monovalent MTK-33.11.

Assay [5] addresses T1, human MerTK on M2c-differentiated human …. The assay can be described thus: FACS on M2c-differentiated human macrophages; reference is monovalent MTK-33.11.
From the text: (§1) Human macrophages were differentiated from human monocytes for 7 days in the presence of human M-CSF, resulting in M2c-differentiated human macrophages. After 7 days, the differentiated human macrophages were harvested (by scraping), resuspended in PBS, and plated on 96-well plates for use. CHO cells overexpressing human MerTK (CHO-huMerTK OE) or M2c-differentiated human macrophages were stained with Dylight650-conjugated monovalent anti-MerTK antibodies or bivalent anti-MerTK antibodies (i.e., anti-MerTK antibodies comprising two full-length heavy chains and two full-length light chains) for 30 min on ice. A range of antibody concentrations were used in these studies to obtain binding curves. […] Cells were fixed and then acquired on a BD FACS Canto II cytometer. The mean fluorescence intensity (MFI) was calculated using FlowJo software and Kd value was calculated using Prism software.
Assay [6] addresses T2, human MerTK overexpressed on CHO cells …. Put plainly: FACS, Dylight650-conjugated antibody on CHO-huMerTK OE cells, MFI against Ab concentration. On the technique in general: Flow cytometry measures light scatter and fluorescence of single cells or particles in a stream.
From the text: as §1
For assay [7] the target is unchanged. The assay can be described thus: FACS, Dylight650-conjugated antibody titrated on CHO-huMerTK OE cells; Kd fitted in Prism from MFI.
From the text: as §1
In assay [8] the target is T3, recombinant murine MerTK extracellular domain (mouse, UniProt Q60805 19-497).
T3 construct: The entry starts with the native signal peptide; also called moMerTK; murine MerTK ECD; not shown: tag
T3 sequence: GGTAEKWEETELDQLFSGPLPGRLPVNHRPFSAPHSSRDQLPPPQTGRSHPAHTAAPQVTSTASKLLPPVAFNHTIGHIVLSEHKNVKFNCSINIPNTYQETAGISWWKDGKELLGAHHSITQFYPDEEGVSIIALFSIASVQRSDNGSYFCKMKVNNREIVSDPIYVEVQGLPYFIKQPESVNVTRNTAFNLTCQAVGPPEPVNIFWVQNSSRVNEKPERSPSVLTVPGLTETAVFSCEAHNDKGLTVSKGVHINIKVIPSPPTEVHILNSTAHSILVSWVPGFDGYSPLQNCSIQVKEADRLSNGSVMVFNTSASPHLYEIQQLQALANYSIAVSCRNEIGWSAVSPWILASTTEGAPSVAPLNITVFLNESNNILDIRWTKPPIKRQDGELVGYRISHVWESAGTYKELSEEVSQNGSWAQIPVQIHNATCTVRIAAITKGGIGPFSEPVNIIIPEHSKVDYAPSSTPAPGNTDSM
The assay can be described thus: SPR (Carterra LSA), antibody immobilised on an HC30 chip, MerTK ECD as analyte; estimate from a 1:1 fit.

The target in assay [9] is T4, recombinant human MerTK extracellular domain (human, UniProt Q12866 21-505).
T4 construct: The entry starts with the native signal peptide, while the construct used a heterologous signal peptide; also called huMerTK; human MerTK ECD; not shown: tag
T4 sequence: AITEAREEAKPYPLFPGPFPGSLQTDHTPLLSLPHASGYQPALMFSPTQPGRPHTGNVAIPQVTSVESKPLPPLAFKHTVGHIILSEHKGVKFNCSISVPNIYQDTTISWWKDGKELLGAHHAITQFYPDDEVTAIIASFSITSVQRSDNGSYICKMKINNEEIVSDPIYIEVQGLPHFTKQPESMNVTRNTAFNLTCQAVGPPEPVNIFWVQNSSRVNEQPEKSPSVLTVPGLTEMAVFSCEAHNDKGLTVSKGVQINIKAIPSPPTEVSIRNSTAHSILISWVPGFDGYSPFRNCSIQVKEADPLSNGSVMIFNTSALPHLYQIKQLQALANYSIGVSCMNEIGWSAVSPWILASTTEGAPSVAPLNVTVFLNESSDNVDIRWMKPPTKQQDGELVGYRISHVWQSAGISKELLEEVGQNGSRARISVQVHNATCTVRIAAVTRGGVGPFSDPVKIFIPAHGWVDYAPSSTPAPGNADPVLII
The assay is described as above.

For assay [10], the target named is T5, recombinant cynomolgus MerTK extracellular domain (cynomolgus, UniProt Q12866 21-505 (human entry)).
T5 construct: The entry starts with the native signal peptide; also called cynoMerTK; cyno MerTK ECD; not shown: tag
T5 chain: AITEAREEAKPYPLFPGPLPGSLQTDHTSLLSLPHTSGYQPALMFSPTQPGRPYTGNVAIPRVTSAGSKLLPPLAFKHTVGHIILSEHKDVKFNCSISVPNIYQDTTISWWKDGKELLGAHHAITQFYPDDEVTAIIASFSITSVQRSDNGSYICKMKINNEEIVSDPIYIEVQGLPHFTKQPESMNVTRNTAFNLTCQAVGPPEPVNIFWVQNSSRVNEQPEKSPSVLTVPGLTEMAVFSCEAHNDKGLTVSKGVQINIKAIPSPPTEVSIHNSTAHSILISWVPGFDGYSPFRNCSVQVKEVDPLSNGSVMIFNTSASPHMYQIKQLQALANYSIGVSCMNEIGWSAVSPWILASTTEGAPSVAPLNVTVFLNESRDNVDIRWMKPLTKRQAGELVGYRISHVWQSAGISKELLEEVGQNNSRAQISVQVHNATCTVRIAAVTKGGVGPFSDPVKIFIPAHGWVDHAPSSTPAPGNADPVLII
The description is as above.

In assay [11] the target is T1, human MerTK on M2c-differentiated human …. The assay can be described thus: FACS, Dylight650-conjugated antibody titrated on M2c-differentiated human macrophages; Kd fitted in Prism from MFI.
From the text: as §1
For assay [12], the target named is T3, recombinant murine MerTK extracellular …. Put plainly: SPR (Carterra LSA), antibody immobilised on an HC30 chip, MerTK ECD as analyte.
Method: Binding kinetics of monovalent anti-MerTK antibodies of the present disclosure to human, cyno, and murine MerTK were evaluated using a Carterra LSA instrument. […] A HC30 sensor chip (Carterra) was activated using the single channel flow cell with a 7-minute injection of a 1:1:1 mixture of 100 mM MES pH 5.5, 100 mM sulfo-NHS, 400 mM EDC (all reconstituted in MES pH 5.5; 100 μl of each mixed in vial immediately before running assay). After switching to the multi-channel array flow cell, the antibodies were injected over the activated chip in a 96-spot array for 15 minutes. A duplicate injection of the antibodies on a second block of the chip was spotted as before. The remaining unconjugated active groups on the chip were then blocked by injecting 1M Ethanolamine pH 8.5 (Carterra) for 7 minutes using the single channel flow cell.
After priming with running buffer (HBS-TE, Carterra) with 0.5 mg/ml BSA (Sigma), the immobilized anti-MerTK antibodies were tested for their ability to bind to several forms of recombinant MerTK extracellular domain, including that of human, cynomolgus, and mouse orthologs as described above. Estimates of affinity were generated by injecting each analyte over the entire antibody array using the single channel flow cell. […] Data were processed and analyzed using NextGenKIT high-throughput kinetics analysis software (Carterra).

B1: bivalent anti-MerTK antibody MTK-33.11 LALAPS (antibody, human IgG1, kappa, L234A L235A, V domains shown)
VH: QVQLVQSGAEVKKPGASVKVSCKASGYTFTSYWMHWVRQAPGQGLEWIGVIDPSDNYINYNQKFQGRVTMTRDTSTSTVYMELSSLRSEDTAVYYCAREAWTRGYFDYWGQGTLVTVSS
VL: DIQMTQSPSSLSASVGDRVTITCQASRSVRNTVAWYQQKPGKAPKLLIYYASNRYTGVPSRFSGSGSGTDFTFTISSLQPEDIATYYCQQDYRSPFTFGQGTKLEIKR
notes: Two full-length heavy chains and two full-length light chains, human IgG1 LALAPS; Dylight650-conjugated in the FACS assay; also called MTK-33.11 bivalent LALAPS; MTK-33.11 full IgG
As to B1, the “Efferocytosis blocking Average IC50” value in assay [1] worked out at 0.341 nM. For the same molecule, in assay [2], the “Average fold change in pAKT activity in the absence of huGas6” value (“Average fold change in pAKT activity” for short) worked out at 1.41 fold. In addition, the “Average pAKT IC50 (nM) in the presence of huGas6” value (shortened to “Average pAKT IC50 (nM)”) in assay [3] was found to be 1.25 nM. Moreover, the “fold higher affinity than monovalent MTK-33.11” value was about 10 fold in [4] and about 5 fold in assay [5]. The “EC50 (read off the curve)” value in assay [6] was about 4 nM. Besides, the Kd in [7] is 0.439 nM; in assay [8], 50 nM; in [9], 2 nM; in assay [10], 2 nM; in assay [11], 2 nM.

B2: monovalent anti-MerTK antibody MTK-16.2 LALAPS (antibody, human IgG1, kappa, L234A L235A)
heavy: not shown
light: DIQMTQSPSSLSASVGDRVTITCRASQNVRTAVAWYQQKPGKAPKRLIYLASNRHTGVPSRFSGSGSGTEFTLTISNLQPEDFATYYCLQHWNYPLTFGGGTKLEIKRTVAAPSVFIFPPSDEQLKSGTASVVCLLNNFYPREAKVQWKVDNALQSGNSQESVTEQDSKDSTYSLSSTLTLSKADYEKHKVYACEVTHQGLSSPVTKSFNRGEC
chain: DKTHTCPPCPAPEAAGGPSVFLFPPKPKDTLMISRTPEVTCVVVDVSHEDPEVKFNWYVDGVEVHNAKTKPREEQYNSTYRVVSVLTVLHQDWLNGKEYKCKVSNKALPASIEKTISKAKGQPREPQVYTLPPSRDELTKNQVSLSCAVKGFYPSDIAVEWESNGQPENNYKTTPPVLDSDGSFFLVSKLTVDKSRWQQGNVFSCSVMHEALHNHYTQKSLSLSPGK
notes: One-armed antibody, human IgG1 LALAPS; Dylight650-conjugated in the FACS assay; also called MTK-16.2 monovalent LALAPS; MTK-16.2 monoarm
For the molecule B2, in assay [1], the “Efferocytosis blocking Average IC50” value is 37.9 nM. In assay [2], the “Average fold change in pAKT activity” value was determined as 1.22 fold. Further, the “Average pAKT IC50 (nM)” value in assay [3] was 15.3 nM. Moreover, the binding result in assay [12] was “no binding”. Further, the Kd in assay [7] was 40.5 nM; in assay [9], 50 nM; in [10], 60 nM; in assay [11], 77.8 nM.

B3: bivalent anti-MerTK antibody MTK-16.2 LALAPS (antibody, human IgG1, kappa, L234A L235A, V domains shown)
VH: QVQLVQSGSELKKPGASVKVSCKASGYTFTNHGMNWVRQAPGQGLEWMGWINTYTGEPTYADDFKGRFVFSLDTSVSTAYLQISSLKAEDTAVYYCARKGVTAARYFDYWGQGTLVTVSS
VL: DIQMTQSPSSLSASVGDRVTITCRASQNVRTAVAWYQQKPGKAPKRLIYLASNRHTGVPSRFSGSGSGTEFTLTISNLQPEDFATYYCLQHWNYPLTFGGGTKLEIKR
notes: Two full-length heavy chains and two full-length light chains, human IgG1 LALAPS; Dylight650-conjugated in the FACS assay; also called MTK-16.2 bivalent LALAPS; MTK-16.2 full IgG
As for B3, the “Efferocytosis blocking Average IC50” value in [1] was 0.436 nM. In [2], the “Average fold change in pAKT activity” value came out at 1.57 fold. Besides, the “Average pAKT IC50 (nM)” value in assay [3] stood at 3.22 nM. Also, the binding result in assay [12] is on record as “no binding”. For the same molecule, the “EC50 (read off the curve)” value in [6] was about 20 nM. Moreover, the equilibrium dissociation constant (Kd) was 42.5 nM in assay [7], 50 nM in assay [9], 60 nM in assay [10] and 51.9 nM in assay [11].

As usually defined, the EC50 (read off the curve) is the concentration at which the effect is half-maximal. In general, Kd refers to the free concentration of one partner at which half of the binding sites on the other are occupied at equilibrium, for simple one-to-one binding.
